Data reported in US6699837.

Assays:
[1] = target: HGF receptor (c-met) on human cell lines of the central nervous system (T98G glioblastoma, GOTO and SCCH-26 neuroblastoma) (human) (UniProt P08581); assay: ^125I-HGF saturation binding on GOTO cells, Scatchard analysis
[2] = target: HGF receptor (c-met) on human cell lines of the central nervous system (T98G glioblastoma, GOTO and SCCH-26 neuroblastoma) (human) (UniProt P08581); assay: ^125I-HGF saturation binding on SCCH-26 cells, Scatchard analysis
[3] = target: HGF receptor (c-met) on human cell lines of the central nervous system (T98G glioblastoma, GOTO and SCCH-26 neuroblastoma) (human) (UniProt P08581); assay: ^125I-HGF binding on T98G, GOTO and SCCH-26 cells, Scatchard analysis (range told of the three cell lines)
[4] = target: HGF receptor (c-met) on human cell lines of the central nervous system (T98G glioblastoma, GOTO and SCCH-26 neuroblastoma) (human) (UniProt P08581); assay: ^125I-HGF saturation binding on T98G cells, Scatchard analysis

Human recombinant HGF (hepatocyte growth factor), radioiodinated (^125I-HGF), sequence (P14210 32-728 limits assumed): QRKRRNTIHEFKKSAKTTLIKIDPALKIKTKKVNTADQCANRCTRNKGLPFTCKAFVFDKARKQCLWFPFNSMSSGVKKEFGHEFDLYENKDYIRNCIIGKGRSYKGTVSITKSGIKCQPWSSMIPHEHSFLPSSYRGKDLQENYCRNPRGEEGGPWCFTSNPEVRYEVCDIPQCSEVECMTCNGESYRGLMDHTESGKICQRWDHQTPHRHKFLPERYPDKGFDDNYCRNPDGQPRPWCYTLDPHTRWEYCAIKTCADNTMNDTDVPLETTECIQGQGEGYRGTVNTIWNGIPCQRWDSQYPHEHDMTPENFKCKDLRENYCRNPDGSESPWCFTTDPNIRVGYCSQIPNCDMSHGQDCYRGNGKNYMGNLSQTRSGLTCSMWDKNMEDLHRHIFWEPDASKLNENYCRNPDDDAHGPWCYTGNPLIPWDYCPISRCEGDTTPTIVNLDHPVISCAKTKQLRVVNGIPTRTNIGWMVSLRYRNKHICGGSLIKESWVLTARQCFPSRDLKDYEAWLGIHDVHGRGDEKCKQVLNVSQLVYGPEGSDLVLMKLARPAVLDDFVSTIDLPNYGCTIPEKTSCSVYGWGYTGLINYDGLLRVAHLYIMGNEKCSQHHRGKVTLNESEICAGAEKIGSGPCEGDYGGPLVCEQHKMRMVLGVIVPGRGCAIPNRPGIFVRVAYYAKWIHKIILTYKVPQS

“Human recombinant HGF (hepatocyte growth factor), radioiodinated (^125I-HGF) (from UniProt P14210 32-728) (ligand)” showed a B max (sites/cell) [1] of 120 sites/cell, a Kd [1] of 0.03 nM and a B max (sites/cell) [2] of 60 sites/cell. For the same substance, the Kd [2] was 0.02 nM, the Kd [3] was 0.03 to 0.04 nM and the B max (sites/cell) [4] was 540 sites/cell. It also gave a Kd [4] of 0.031 nM.
